Experiment: yeast display, Sf9 membrane polyspecificity reagent, FACS + sequencing; frameworks hold sequencing errors
Procedure, shortened: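 A synthetic nanobody library was expressed on Saccharomyces cerevisiae BJ5465 by galactose induction for 36–48 hours. The library was stained for 1 hour at 4 °C with 10% biotinylated, detergent-solubilized Sf9 membrane reagent and enriched with streptavidin microbeads before FACS. Low and high (top ~1%) gates were set on anti-HA fluorescence for expression and streptavidin fluorescence for reagent binding, and each polyreactivity label reflects the gate of origin.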

| Sequence | polyreactivity (PSR sort gate) |
| --- | --- |
| QVQLVESGGGLVQAGGSLRLSCAASGSTFGNYAMGGYRQAPGKERELVAVSTSAGSTYYADSVKGRFTISRDNAKNTVYLQMNSLKPEDPAVYYCNTGKHVRYYYWGQGTQVTVSS | low polyreactivity |
| QVQLVESGGGIVQAGGSLRLSCAASGRIFTQYTMGWYRQAPGKERELVAAINYSGGRTNYADSVKGRFTISRDIAKNTVYLQMNSLKPEDTAVYYCAAGYRRATYGYWGQGTQVTVSS | high polyreactivity |
| QVQLVESGGGLVQAGGSLRLSCAASAFILASYPMGWNRQAPGKERELVAAITKRGGSTYYADSVKGRFTISRDNAKNTVFLQMNSLKPEDTAVYFCATYSSTVLPRWKYYYWGQGTQVPVSS | high polyreactivity |
| QVQLVESVGGLVQAGGSLRLICAASGIIFKFNAMGWYRQAPGKEREFVAAIRWRGGSTYYADSVKGRFTISRDNAKNTVYLQMNSLKPEDTAVYYCAATYRTGYYYWGQGTQVTVSS | high polyreactivity |
| QVQLEESVGGLVQAGVSLRLSCAASGRFFYFYAMGWYRQAPAKERELVASISSGGITIYADSVKGRFTISRDNSKYTVYLQMYSLKREDTAVYYCNAGYASGKYSGVYLYGYLGQGTQVTVSS | low polyreactivity |
| QVQLVESGGGLVQAGGSLRLSCAASGIIFRVYAMGWYRQAPGKERELVATITWSGGSTFYADSVKGRFTISRDNAKNPVDLQRNSLTPEDTAVYYCAARGYLRREQLYVLIRYDYWGQGTQVTVSS | low polyreactivity |
| QVQLVESGGGLVQAGGSLRLSCAASGIIFYLYTMGWYRQAPGKERELVAAITRGGSTYYADSVKGRFTISRDNAKNTVYLQMNSLKPEDTSVYYCAAKHGPGYRRWYDYWGQGTQVTVSS | high polyreactivity |
| QVQLVESGGRKVQAGGSLRLSCAASGYTSSRYAMGRYRPAPGKERELVAAISGTGGSTNYADSVKGRFTISRDNAKNNVYLQKNSLKPEDTAVYYCAKRSRTYGTSPYYYWGQGTQVSVSS | high polyreactivity |
| QVQLVESGGGLVQAGGSLRLSSAASGRTFHANAMGWYRQAPGKERELVARINWSGTSTYYADSVKGRFTISRDNAKNTVYLQMNSLKPEDTAVYYCAAGWIRLYSSLYDYWGQGTQVTVSS | high polyreactivity |
| QVQLVESGGGLVQAGGSLRLSCAASGRIFRYYTMGWYRQEPGKERELVAAITGSGGSTYYADSVKGRFTISRDNAKTTVYLQMNSLKPEDTAVYYCAARGYLDMGYWGQGTQVTVSS | high polyreactivity |
| QVQLVESGGGLVQAGGSLRLSCAASGRTFWWYAMGWYRQAPGKERELVATINVSGGSTYYADSVKGRFTISRDNAKNTVYFQINSLKPEDTAVYYCNKRGFYTPSVSYDYWGQGTQVTVSS | low polyreactivity |
| QVQLVESGGGLVQAGGSLRLSCAASGGTFLSNAMGWYRQAPGKERELVAAISASSGSTYYADSVKGRFTISRDNAKNPVYLQMNSVKPEDTAVYYCAKERRASVVRYDYWGQGTQVTVSS | low polyreactivity |
| QVQLVESGGGLVQAGGSLRLSCAASGSIFGYYVMGWYRQAPGKERELVAAISRSGGSTYYADSVKGRFTISRDNAKNTVYLQMNSLIPEATAVYYCAARGTAERDYWGQGNQVTVSS | high polyreactivity |
| QVQLVESGGGLVQAGGSLRLSCAASGRTFIVNAMGWYRQAPGKERELVAAITKGARTYYADSVKGRFTISRDNAKNTVYLQMNSLKPEDSAVYYCAAVSYTQSHAYWGTGYRYGYWGQGTQVTVSS | high polyreactivity |
| PVQLVESGGGLVQAGGSLRLSCDAYGSIFAYNAMGWYRQAPGKERELVAAISVSDGITYYADSVKGRFTISRDNAKNTVYLQMISLKPEDTAVYYCPARTRGPSRAYDYWGQGTQGTVSS | low polyreactivity |
| QVQLVESGGGLVQAGGSLRLSCAASGRIFDGYAMGWYRQAPGKERELVAAINRSGSSTYYADSVKGRFTISRDNAKNTVYLQMNSLKPEDTAVYYCNARSGNRYGPRYDYWGQGTQVTVSS | high polyreactivity |
| QVQLVESGGGLVQAGGSLRLSCAASGSTFSYNAMGWYRQAPGKERELVAAISGSGGTTYYADSVKGRFTISRDNAKNTVYLQMNSLKPEDTAVYYCAARPFRSWRYDYWGQGTQVTVSS | low polyreactivity |
| QVQLVESGGGLVQAGGSRRLSCAASGSTFYGYAMGWYRQAPGKEREFVAAITTSGGSTYYADSVKGRFTISRDNAKNTVYLQMNSLKPEDTAVYYCDADAPSWYDRQYDYWGQGTQVTVSS | low polyreactivity |
| QVQLVESGGGLVQAGGSLRLSCAASGSIFRPYAMGWYRQAPGKERVLVAAISRRGGSTYYADSVKGRFTISRDNAKNTVYLQMNSLKPEDTAVYYCAADHSRPSPYGYGYWGQGTQVTVSS | high polyreactivity |
| QVQLVESGGGLVQAGGSLRLSCAASGSIFVTNAMGWYRQAPGKERELVAAISNSGSSTYYADSVKGRFTISRDNAKNTVYLQMNSLKPEDTAVYYCAADWYGVTGSYYYWGQGTQVTVSS | high polyreactivity |
| QVQLVESGGGLVQAGGSLRLSCAASGRIFRPYAMGWYRQAPGKERELVAGITSSGGSTYYADSVKGRFTISRDNAKNTVYLQMNSLKPEDTAVYYCAADYGWGSGFEYDYWGQGTQVTVSS | low polyreactivity |
| QVQLVESGGGLVQAGGSLRLSCAASGITFQNYAMGWYKQAPGKERELVAAITRSGGRTYYADSVKGRFTISRDNAKNTVYLQMNSLKPEDTAVYYCAVYGIGRPYWYDYWGQGTQLTVSS | high polyreactivity |

| Sequence | polyreactivity (PSR sort gate) |
| --- | --- |
| QVQLVESGGGLVQAGGSLRLSCAASARIVRKYTMGWFRQAPGKERELVAAISRNGGDTYYADSVKGRFTISRDNAKNTVYLQMHSLKPEDTAVYYCNARTPTDSTHFDYWGQGTQVTVSS | low polyreactivity |
| QVQLVESGGGIVQAGGSLRLSCAASGSTFRAYVMGWSRPAPGKERELVAAITYRGTSTYYADSVKGRFTISRDNAKYTVYLQMNSLKPEDTAVYYCAARRLYTRGTYDYWGLGTQVTVSS | high polyreactivity |
| QVQLVESGLGLVQAGGSLRLSCAASGFTFTGYAMGWYRQAPGKERELVAAITRGGGSTYYADSVKGRFTISRDNAKNTVYLQMNSLKPEDTAVYYCAAQRSRLIRISSPYYGHEYWVQGTQVTVSS | low polyreactivity |
| QVQLVESGGGLVQAGGSLRLSCAASGFIFVNNVMGWYRQAPGKERELVAAISRRGGSTYYADSVKGRFTISRDNAKNTVYLQMNSLKPEDTAVYYCARRGPDFSWKYDYWGQGTQVTVSS | high polyreactivity |
| QVQLVESGGGLVQAGGSLRLSCAASGFIFWGNAMGWYRQAPGKERELVAAITYSGDRTYYADSVKGRFTISRDNAKNTVYLQMNSLKPEDTAVYYCNADLALRSRYGEYDYWGQGTQVTVSS | high polyreactivity |
| QVQLVESGGALVQAGGSIRLSCAASGFISRKNALGWYSQAPGKERELVATITKSGDTTYYADSVKGRFTISRDNAKNTVYLQMNSLKPEETAVYYCAAPLYYIGSWDYYVRYIYDYWGQGTQVTVSS | low polyreactivity |
| QVQLVESGGGLVQAGGSLRLSCAPYGFTFSKYAMGWYRKAPGKERELVAAITYSGGTTYYADSVKGRFTISRDNAKNTVYLQMNSLKPEDTAVYYCAADTKRRSIRYDYWGQGTQVTVSS | high polyreactivity |
| QVQLVESGGGLVQAGGSLRLSCAASGSIFWLYAMGWYRQAPGKERELVAAITWSGGRTYYADSVKGRFTISRDTAKNTVYLQMNSLKPEDTAVYYCARRQWPWYSNPARGGKYDYWGQGTQVTVSS | low polyreactivity |
| QVQLVESGGGLVQAGGSLRLSCAASGRISLSNAMGWYRQAPGKEREFVAAITKRSDRTYYADSVKGRFTISRDNAKNTVYLQMNSLKPEDTAVYYCAAKPLFGTRDDYWGQGTHVTVSS | low polyreactivity |
| QVQLVESGGGLVQAGGSLRLSCAASGSIFVKNAMGWYIHAPGKERELVATISRRGGSTYYADSVKGRFTISRDIAKNTVYLQMNSMKPEDTAVYYCAADRSNRPYYRQGYDYWGQGTQVTVSS | high polyreactivity |
| QVQLVESGGGLVQAGGSLRLSCAASGFIFADYAMGWYRQAPGKERELVAAITGRGTSTYYEDSVKGRFTISRDNAKNTVYLQMNSLKPEDTAVYLCAAAGTYYRHYKGYYRHLDYWGQGTQVTVSS | high polyreactivity |
| QVHLVESGGGLVQAGGSLRLSSAASGSNFGLNAMGWSRQAPGKERELVAAITWSGGSSTYYADTVKGRLTISRDNAKNSVYLQMKSLKPEDTAVYYCAARRVFIPYYVRFYYWGQGTQVTVSS | high polyreactivity |
| QVQLVESGGGLVQAGGSLRLSCAASGTFYKYAMGWYRQAPGKERELVAAISWRGGRTYADSVKGRFKISRDNAKNTVYLQMNSLKPEDTAVYYCNKRFYPEHYYWGQGTQVTVSS | high polyreactivity |
| QVQLVESGGGLVQAGGSLRLSCADSGSTFWPYAMGWYRQAPGKESEVVAAISSSGGSTYYADSVQGRFTISRDNAKNTVYLQMNSLKPEDTAVYYCNKDYHRPFGGGSKGDYWGQRTQVTVSS | low polyreactivity |
| QVHLEESGGRLVQAGGSLRLSCSDSGRIIPRNVMGLYRQAPGKERELVAAISSRGTRTYYADSVKGRFTISRDNAKNTVFLQMNSLKPEDTAVYYCAADGPYDGYDFWGQGTQVTVSS | high polyreactivity |
| QVQLVESGGGLVQAGGSLRLSCASSGLILAPNDMGWYRQAPGKERELVAAITFRGVRTYYADSVKGRFTISRDNAKNNVYLQLNSLKPEDTAVYYCAAAVSKHYPYNYWGQGTQVSVSS | high polyreactivity |
| QVQLVESGGGLVQAGGSLRLSCAASGRTIRWNAMGGSRPAPGKERELVAAITSRGGSTYYADSVKGRFTISRDNAKNTVYLQMNSLKPEDTAVYYCAAGGRYGDDYWGQGTQVTVSS | high polyreactivity |
| QVQLVESAGGLVQAGASLRLSCDASGSTFVYYDMGWYRQAPGKERELVASISWSGGSTSYSDSVKGRFTISRDNAKNTVYLQMNSLKPEDTAVYYCNKSNPDYDGLAIHAFDYWGQGTQVTVSS | low polyreactivity |
| QVQLVESGGGLVQAGGSLRLSCAASGFTFGRNAMGWYRQAPGKERELVAAISRGGSTYYADSVKGRFTISRDNAKNTVYLQMNSLKPEDTAVYYCAAETFLKPQYFKKFGYWGQGTQVTVSS | high polyreactivity |
| QVQLVESGGGLVQAGGSLRLSCAASGRTFYINAMGWYRQAPGKERELVAAITWSGGRTYYADSVKGRFTISRDNAKNTVYLQMNSLKPEDTAVYYCNTRSYSYYVPYRYDYWGQGSQVTVSS | high polyreactivity |
| QVQLVESGGGLVQAGGSLRLSCAASGSTFPIYAMGWYRQAPGKERELVAAITWRGGSRTYYADSVKGRFTISRDNAKNTVYLQMNSLKPEDTAVYYCAAEYQWPLYGYWGQGTQVTVSS | low polyreactivity |
